The record followed here is patent US20220002426A1 (BIOINVENT INTERNATIONAL, published 2022).

The target of assay [1] is T1, recombinant human TNFR2-Fc protein (Sino Biological) (human, UniProt P20333 23-257, limits assumed).
T1 construct: bought; also called human TNFR2 protein; not shown: Fc part of the bought fusion protein; not described
T1 sequence (looked up): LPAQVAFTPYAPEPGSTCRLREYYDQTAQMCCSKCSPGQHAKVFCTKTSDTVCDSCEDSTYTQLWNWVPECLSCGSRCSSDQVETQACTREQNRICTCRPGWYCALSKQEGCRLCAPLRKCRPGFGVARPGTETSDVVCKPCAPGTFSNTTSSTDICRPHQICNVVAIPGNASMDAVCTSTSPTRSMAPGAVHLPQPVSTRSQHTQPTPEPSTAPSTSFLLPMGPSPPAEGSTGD
The assay is described as follows: ELISA, coated TNFR2-Fc. The procedure: 96-well plates (Lumitrac 600 LIA plate, Greiner) were coated overnight at 4° C. with recombinant human or mouse TNFR2-Fc protein (Sino Biological) at 1 pmol/well. After washing, titrated doses of anti-TNFR2 mAbs from 20 μg/ml to 0.1 ng/ml (133 nM to 1 pM) were allowed to bind for 1 hour. Plates were then washed again, and bound antibodies were detected with an anti-human-F(ab)-HRP secondary antibody (Jackson ImmunoResearch) diluted in 50 ng/ml. Super Signal ELISA Pico (Thermo Scientific) was used as substrate and the plates were analyzed using Tecan Ultra Microplate reader.
Background: In an ELISA, binding on a coated surface is turned into a signal by an enzyme label.

Assay [2] has as its target T2, wild type, full length human TNFR2 (on cells) (human, UniProt P20333 23-461).
T2 construct: whole, on cells; also called hTNFR2; TNFRII
T2 sequence (looked up): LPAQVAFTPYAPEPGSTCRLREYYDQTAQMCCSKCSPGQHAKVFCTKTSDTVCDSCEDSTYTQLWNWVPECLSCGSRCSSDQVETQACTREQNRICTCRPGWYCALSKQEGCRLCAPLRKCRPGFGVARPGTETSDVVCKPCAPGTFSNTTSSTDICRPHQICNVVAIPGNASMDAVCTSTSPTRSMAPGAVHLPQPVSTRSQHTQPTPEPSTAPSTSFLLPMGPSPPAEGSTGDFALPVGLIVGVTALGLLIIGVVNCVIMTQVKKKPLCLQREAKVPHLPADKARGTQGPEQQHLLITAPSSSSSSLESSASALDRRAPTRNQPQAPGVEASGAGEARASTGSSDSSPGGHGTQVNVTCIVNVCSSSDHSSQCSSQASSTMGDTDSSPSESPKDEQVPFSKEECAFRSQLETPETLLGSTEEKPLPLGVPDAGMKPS
The assay is described as follows: FACS, activated CD4+ T cells. The procedure: The ability and affinity of TNFR2 n-CoDeR® antibodies to bind TNFR2 expressed on cells were obtained using in vitro activated CD4⁺ T cells. Human CD4⁺ T cells were stimulated with 50 ng/ml rhIL-2 (R&D systems) and Dynabeads® T-Activator CD3/CD28 for T-Cell Expansion and Activation (Gibco) 2-3 days at 37 degrees. […] Cells were then incubated with an APC conjugated a-human IgG secondary ab (Jackson) followed by analysis by flow cytometry (FACSVerse, BD).
(A flow cytometer gives signals particle by particle.)

The target in assay [3] is T3, hTNFRII (Sinobioologicals Cat nr10414-H08H) (human, UniProt P20333 23-257).
T3 construct: bought; also called immobilized TNFR2
T3 sequence (looked up): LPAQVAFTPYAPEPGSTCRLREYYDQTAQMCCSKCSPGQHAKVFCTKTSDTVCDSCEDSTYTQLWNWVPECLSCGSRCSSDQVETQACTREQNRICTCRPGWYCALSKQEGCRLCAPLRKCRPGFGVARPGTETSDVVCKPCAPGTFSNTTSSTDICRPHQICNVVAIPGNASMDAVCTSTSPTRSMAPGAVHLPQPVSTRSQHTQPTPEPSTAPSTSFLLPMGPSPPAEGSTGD
The assay is described as follows: blocking ELISA, coated hTNFRII, competitor hTNF-α-bio 5 nM. As to the method:
96-well plates were coated with hTNFRII (Sinobioologicals Cat nr10414-H08H) or mTNFRII (Sinobioologicals Cat No. 50128 M08H) at 2.5 pmol/well in ELISA coating buffer (0.1 M sodium carbonate pH 9.5) and incubated overnight at 4° C. After washing in ELISA wash buffer (PBS with 0.05% Tween20), the plates were incubated under slow agitation for 1 h in room temperature with n-CoDeR® mAbs at 10 μg/ml (one-dose ELISA) or 33 nM and subsequent 1:2 dilutions (titration ELISA) in block buffer containing 0.45% fish gelatin. […] Thereafter, plates were washed. For the human ELISAs, Streptavidin-HRP (Jackson Cat No. 016-030-084) diluted 1:2000 in block buffer were added and again incubated for 1 h at room temperature followed by washes first in ELISA buffer and then in Tris buffer (pH 9.8). The substrate (Super Signal ELISA Pico from Thermo Scientific Cat. No. 37069) were thereafter diluted according to the manufacturers instruction, added to the wells and incubated in darkness for 10 min before reading in a Tecan Ultra. […] After washing, anti-Rabbit-HRP diluted 1:10 000 in block buffer was added and again incubated for 1 h at room temperature. Substrate adding and reading were performed as above.

Usually EC50 stands for the concentration that produces a half-maximal response.

B1: 001-B09 (antibody, V domains shown)
VH: EVQLLESGGGLVQPGGSLRLSCAASGFTFSRHAMNWVRQAPGKGLEWVSSISTGSSYIDYADSVKGRFTISRDNSKNTLYLQMNSLRAEDTAVYYCAREKGHYYYGMDVWGQGTLVTVSS
VL: QSVLTQPPSASGTPGQRVTISCTGSSSNIGAGYDVHWYQQLPGTAPKLLIYGNSYRPSGVPDRFSGSKSGTSASLAISGLRSEDEADYYCQSYDTSLSAYVVFGGGTKLTVLG
notes: IgG
In the case of B1, the concentration giving a half-maximal response (EC50) amounted to 180 pM in assay [1] and 29000 pM in assay [2].

B2: 005-B02 (antibody, V domains shown)
VH: EVQLLESGGGLVQPGGSLRLSCAASGFTFSDYYMSWIRQAPGKGLEWVALIWYDGGNEYYADSVKGRFTISRDNSKNTLYLQMNSLRAEDTAVYYCVRETGNYGMDVWGQGTLVTVSS
VL: QSVLTQPPSASGTPGQRVTISCTGSSSNIGAGYDVHWYQQLPGTAPKLLIYRNNQRPSGVPDRFSGSKSGTSASLAISGLRSEDEADYYCATWDDRVNGPVFGGGTKLTVLG
notes: IgG
For the molecule B2, the EC50 was found to be 150 pM in assay [1], 200 pM in assay [3] and 800 pM in assay [2].

B3: 001-A09 (antibody, V domains shown)
VH: EVQLLESGGGLVQPGGSLRLSCAASGFTFSSNYMSWVRQAPGKGLEWVSVISGSGGSTYYADSVKGRFTISRDNSKNTLYLQMNSLRAEDTAVYYCARDRGWFDPWGQGTLVTVSS
VL: QSVLTQPPSASGTPGQRVTISCSGSRSNIDNSYVSWYQQLPGTAPKLLIYRNNQRPSGVPDRFSGSKSGTSASLAISGLRSEDEADYYCATWDDSLSGPVFGGGTKLTVLG
notes: IgG
Turning to B3, the concentration for a half-maximal effect (EC50) was found to be 4400 pM in assay [1] and 48000 pM in assay [2].

B4: 001-C08 (antibody, V domains shown)
VH: EVQLLESGGGLVQPGGSLRLSCAASGFTFSNAWMSWVRQAPGKGLEWVSGISSSGSSAYYADSVKGRFTISRDNSKNTLYLQMNSLRAEDTAVYYCARHYYYHIAGYYYDTFDIWGQGTLVTVSS
VL: not shown
notes: IgG; also called 1-008
With B4, the EC50 turned out to be 82 pM in assay [1], 1100 pM in assay [3] and 2600 pM in assay [2].

B5: 001-B05 (antibody, V domains shown)
VH: EVQLLESGGGLVQPGGSLRLSCAASGFTFSNAWMSWVRQAPGKGLEWVSSISSASGYIYYGDSVKGRFTISRDNSKNTLYLQMNNLRAEDTAVYYCARGTLYGDFDEFWGQGTLVTVSS
VL: QSVLTQPPSASGTPGQRVTISCSGSSSNIGNNAVNWYQQLPGTAPKLLIYGNTNRPSGVPDRFSGSKSGTSASLAISGLRSEDEADYYCQSYDSSLSGYVVFGGGTKLTVLG
notes: IgG
In the case of B5, the 50% effective concentration (EC50) in assay [1] amounted to 230 pM; in assay [2] it was 1500 pM.

B6: 001-C05 (antibody, V domains shown)
VH: EVQLLESGGGLVQPGGSLRLSCAASGFTFSSNEMSWIRQAPGKGLEWVSVIYSGGSTYYADSVKGRFTISRDNSKNTLYLQMNSLRAEDTAVYYCARREGWLVPFDYWGQGTLVTVSS
VL: QSVLTQPPSASGTPGQRVTISCSGSSSNIGSNTVNWYQQLPGTAPKLLIYGNIIRPSGVPDRFSGSKSGTSASLAISGLRSEDEADYYCQSFDTTLSGSIVFGGGTKLTVLG
notes: IgG
B6: the concentration for a half-maximal effect (EC50) was found to be 380 pM in assay [1] and 12000 pM in assay [2].

B7: 004-E08 (antibody, V domains shown)
VH: EVQLLESGGGLVQPGGSLRLSCAASGFTFSRYWMHWVRQVPGKGLEWVSGISDSGVVTYYADSVKGRFTISRDNSKNTLYLQMNSLRAEDTAVYYCARAQSVAFDIWGQGTLVTVSS
VL: QSVLTQPPSASGTPGQRVTISCSGSSSNIGAGHDVHWYQQLPGTAPKLLIYYDDLLPSGVPDRFSGSKSGTSASLAISGLRSEDEADYYCAAWDDSLSGWVFGGGTKLTVLG
notes: IgG
On to B7, for which the figures for the EC50 in assay [1] and in assay [2] were 380 pM and 2300 pM, respectively.

B8: 001-E06 (antibody, V domains shown)
VH: EVQLLESGGGLVQPGGSLRLSCAASGFTFSSNYMSWVRQAPGKGLEWVALIWYDGSNKYYADSVKGRFTISRDNSKNTLYLQMNSLRAEDTAVYYCAKDPLFDSWGQGTLVTVSS
VL: QSVLTQPPSASGTPGQRVTISCTGRSSNIGAGYDVHWYQQLPGTAPKLLIYDNNKRPSGVPDRFSGSKSGTSASLAISGLRSEDEADYYCAAWDDSLNGPVFGGGTKLTVLG
notes: IgG
As to B8, the 50% effective concentration (EC50) in assay [1] came to 200 pM; in assay [3], 300 pM; in assay [2], 4100 pM.

B9: 001-H10 (antibody, V domains shown)
VH: EVQLLESGGGLVQPGGSLRLSCAASGFTFDDYGMSWVRQAPGKGLEWVSVIYSGGSTYYADSVKGRFTISRDNSKNTLYLQMNSLRAEDTAVYYCARDRSSSWYRDGMDVWGQGTLVTVSS
VL: QSVLTQPPSASGTPGQRVTISCTGSSSNIGAGYDVHWYQQLPGTAPKLLIYGNSNRPSGVPDRFSGSKSGTSASLAISGLRSEDEADYYCAAWDDSLSGWVFGGGTKLTVLG
notes: IgG
Turning to B9, the EC50 in assay [1] came to 290 pM; in assay [3] it was 900 pM; in assay [2], 1100 pM.

B10: 001-D01 (antibody, V domains shown)
VH: not shown
VL: QSVLTQPPSASGTPGQRVTISCSGSSSNIGSNTVNWYQQLPGTAPKLLIYGNSNRPSGVPDRFSGSKSGTSASLAISGLRSEDEADYYCQSYDSSLSASVFGGGTKLTVLG
notes: IgG
In the case of B10, the results for the EC50 in assay [1], in assay [3] and in assay [2] were 370 pM, 1400 pM and 3900 pM, respectively.

B11: 001-H09 (antibody, V domains shown)
VH: EVQLLESGGGLVQPGGSLRLSCAASGFTFSSYAMSWVRQAPGKGLEWVATISYHGSDKDYADSVKGRFTISRDNSKNTLYLQMNSLRAEDTAVYYCARDANYHSSGYYYDVFDIWGQGTLVTVSS
VL: not shown
notes: IgG
As for B11, the EC50 turned out to be 300 pM in assay [1], 1400 pM in assay [3] and 16000 pM in assay [2].

B12: 005-F10 (antibody, V domains shown)
VH: EVQLLESGGGLVQPGGSLRLSCAASGFTFSDYYMTWIRQAPGKGLEWVSGISGSGGYIHYADSVKGRFTISRDNSKNTLYLQMNSLRAEDTAVYYCAREGLLPDAFDIWGQGTLVTVSS
VL: not shown
notes: IgG
On to B12, for which the concentration giving a half-maximal response (EC50) amounted to 220 pM in assay [1], 30 pM in assay [3] and 32000 pM in assay [2].

B13: 001-C07 (antibody, V domains shown)
VH: EVQLLESGGGLVQPGGSLRLSCAASGFTFSSYEMNWVRQAPGKGLEWVSTITGGGSIYDANSVQGRFTISRDNSKNTLYLQMNSLRAEDTAVYYCARDSTYHSSGYYYDVFDIWGQGTLVTVSS
VL: not shown
notes: IgG
As to B13, the results for the 50% effective concentration (EC50) in assay [1], in assay [3] and in assay [2] were 260 pM, 800 pM and 36000 pM, respectively.

B14: 001-B11 (antibody, V domains shown)
VH: EVQLLESGGGLVQPGGSLRLSCAASGFTFSSYSMNWVRQAPGKGLEWVAVMSYDEYNTYYADSVKGRFTISRDNSKNTLYLQMNSLRAEDTAVYYCAKGFYGDYPLWDYWGQGTLVTVSS
VL: not shown
notes: IgG
For B14, the 50% effective concentration (EC50) in assay [1] stood at 250 pM; in assay [3], 1000 pM; in assay [2] it was 27000 pM.
